Test results from article PMC9157410.

Target: recombinant TpiA (triosephosphate isomerase of Streptococcus pneumoniae D39) (S. pneumoniae D39) (UniProt P66943)
Test: SPR; Biacore X100; rTpiA amine-coupled on a CM5 chip; plasminogen, laminin and BSA injected at 3.125 to 50 nM, contact time 120 s, 20 µL/min; 100 mM HEPES pH 7.4, 150 mM NaCl, 3 mM EDTA, 0.005% surfactant P20; apparent constants

UniProt P66943, sequence (P66943 2-252): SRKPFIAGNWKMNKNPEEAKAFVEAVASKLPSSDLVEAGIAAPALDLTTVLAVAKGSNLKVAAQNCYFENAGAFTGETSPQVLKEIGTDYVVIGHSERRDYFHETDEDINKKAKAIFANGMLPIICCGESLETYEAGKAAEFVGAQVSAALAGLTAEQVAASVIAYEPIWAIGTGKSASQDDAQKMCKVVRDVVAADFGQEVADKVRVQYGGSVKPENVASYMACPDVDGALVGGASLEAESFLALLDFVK

## plasminogen from human plasma (natural protein)
  Kd: 0.411 µM
  koff: 0.00553 s⁻¹
  kon: 13400 M⁻¹ s⁻¹
